As a reminder, the IC50 is the concentration that inhibits the measured activity by half. As a reminder, the Kd is the constant that tells how readily two partners part at equilibrium.

From the Immune Epitope Database (IEDB) come the findings set out here.

In assay [1] the target is HLA-A*02:01. Nature of the assay: IEDB peptide-MHC binding, purified MHC/competitive/fluorescence; ≥ and ≤ were set here for values at or beyond the usual limits of such assays.
For assay [2], the target named is HLA-B*51:01. Description: IEDB peptide-MHC binding, purified MHC/competitive/radioactivity; filed as Kd, often an IC50 or EC50 that approximates it; ≥ and ≤ were set here for values at or beyond the usual limits of such assays.
Assay [3] addresses HLA-B*35:01. The assay is described as above.
Assay [4] has as its target HLA-A*69:01. Nature of the assay: IEDB peptide-MHC binding, purified MHC/direct/fluorescence; filed as Kd, often an IC50 or EC50 that approximates it; ≥ and ≤ were set here for values at or beyond the usual limits of such assays.
Assay [5] has as its target HLA-A*03:01. Described as above.
Assay [6] addresses HLA-A*11:01. Described as above. As to conditions: source organism: Francisella tularensis subsp. holarctica LVS.
In assay [7] the target is HLA-B*07:02. Description: IEDB peptide-MHC binding, purified MHC/competitive/radioactivity; filed as Kd, often an IC50 or EC50 that approximates it; ≥ and ≤ were set here for values at or beyond the usual limits of such assays.
The target in assay [8] is HLA-B*53:01. The assay is described as above.
In assay [9] the target is HLA-A*02:01. Description: IEDB peptide-MHC binding, purified MHC/direct/fluorescence; filed as Kd, often an IC50 or EC50 that approximates it; ≥ and ≤ were set here for values at or beyond the usual limits of such assays.
In assay [10] the target is HLA-B*07:02. Described as above.
Assay [11] addresses HLA-B*58:01. The description is as above. As to conditions: source organism: Mammarenavirus juninense.
The target of assay [12] is HLA-B*15:01. Described as above.
For assay [13], the target named is HLA-A*68:01. Nature of the assay: IEDB peptide-MHC binding, purified MHC/competitive/radioactivity; filed as Kd, often an IC50 or EC50 that approximates it; ≥ and ≤ were set here for values at or beyond the usual limits of such assays. As to conditions: source organism: SARS coronavirus Tor2.
Assay [14] deals with HLA-A*33:01. Described as above. As to conditions: source organism: SARS coronavirus Tor2.
Assay [15] addresses HLA-A*31:01. The assay is described as above. As to conditions: source organism: SARS coronavirus Tor2.
Assay [16] concerns the target HLA-A*01:01. Nature of the assay: IEDB peptide-MHC binding, purified MHC/direct/fluorescence; filed as Kd, often an IC50 or EC50 that approximates it; ≥ and ≤ were set here for values at or beyond the usual limits of such assays.
Assay [17] deals with HLA-B*40:01. The description is as above. As to conditions: source organism: Mycobacterium tuberculosis.
The mark [18] stands for this setting: source organism: Vaccinia virus Copenhagen.
Setting [19] is: source organism: Dengue virus 4 Philippines/H241/1956.
The mark [20] stands for this setting: source organism: Dengue virus 4 Dominica/814669/1981.
Setting [21] is: source organism: Zaire ebolavirus.
Where [22] appears, read: source organism: Dengue virus 1 Brazil/97-11/1997.
[23] abbreviates: source organism: Brucella abortus 2308.
[24] abbreviates: source organism: Vaccinia virus.
[25] abbreviates: source organism: Rickettsia sibirica.
The mark [26] stands for this setting: source organism: Vibrio vulnificus.
Where [27] appears, read: source organism: dengue virus type 4.
The mark [28] stands for this setting: source organism: Dengue virus 3 Martinique/1243/1999.
Where [29] appears, read: source organism: West Nile virus.
Setting [30] is: source organism: Escherichia coli.
The mark [31] stands for this setting: source organism: Dengue virus 2 Jamaica/1409/1983.
The mark [32] stands for this setting: source organism: Entamoeba histolytica HM-1:IMSS.
[33] abbreviates: source organism: Bacillus cereus.
The mark [34] stands for this setting: source organism: Sudan ebolavirus.
The mark [35] stands for this setting: source organism: Yersinia pestis.

In the case of CSSISIKLT, the 50% inhibitory concentration (IC50) in assay [1] (setting [18]) was at least 729000 nM.
Consider LPTYLSSRAK, for which the dissociation constant (Kd) in assay [2] (setting [19]) was at least 49800 nM; in [3] (setting [19]), 15100 nM.
On to DLNKVIQFL, for which the Kd in [4] (source organism: Haemophilus influenzae) turned out to be 352 nM.
Take RIYCQENPY: the figures for the equilibrium dissociation constant (Kd) in [5] (source organism: Francisella tularensis subsp. holarctica LVS) and in assay [6] were 91.7 nM and 26.3 nM, respectively.
As to SPGYVLGVFL, in assay [7] (setting [20]), the dissociation constant Kd is 238 nM.
Regarding VAFLILPQA, the 50% inhibitory concentration (IC50) in [1] (setting [21]) is 520 nM.
As for IPERSWNSGY, the equilibrium dissociation constant (Kd) in assay [3] (setting [22]) was determined as 155 nM.
As to LIGLSSRATW, the Kd in assay [8] (setting [19]) stood at 378 nM.
Regarding DLSLGNQEL, the figures for the Kd in assay [9] (setting [23]) and in assay [4] (setting [23]) were at least 10000 nM and at least 20000 nM, respectively.
On to FPQSNSPIED, for which the Kd is at least 37500 nM in assay [2] (setting [19]), 630 nM in assay [3] (setting [19]) and 1830 nM in assay [8] (setting [19]).
On to VSWKPWSSK, for which, in assay [5] (source organism: Cryptosporidium parvum), the Kd came out at 50.7 nM.
Sequence RAADEPPLV gave an IC50 in [1] (setting [24]) of 2830 nM.
As to MAICSAVPT, the Kd in [3] (setting [19]) worked out at 543 nM.
Consider KLYFWIPWS, for which the Kd was 197 nM in assay [9] (setting [25]) and at least 20000 nM in assay [4] (setting [25]).
GMNAPDDLV showed an IC50 in assay [1] (setting [21]) of 6300 nM.
GPRQWRWPL gave a Kd in assay [10] (source organism: Mycobacterium tuberculosis str. Haarlem) of 14.2 nM.
For the sequence SAWESFWRI, the Kd is 12.8 nM in assay [9] (setting [26]) and 1.4 nM in assay [4] (setting [26]).
LPVWLSYKVA: the Kd in assay [3] (setting [22]) was found to be 864 nM.
In [1] (source organism: Variola virus), AFIHIPGDT had an IC50 of 24800 nM.
Consider LPLPWTAGAD, for which the equilibrium dissociation constant (Kd) was at least 69600 nM in assay [2] (setting [20]) and 8060 nM in assay [3] (setting [20]).
LGVATAHGS yielded an IC50 in [1] (setting [21]) of at least 277000 nM.
Regarding TPEGIIPTL, the figures for the Kd in assay [4] (setting [27]) and in assay [10] (setting [27]) were 2720 nM and 9240 nM, respectively.
GTTFAEGVV yielded a half-maximal inhibitory concentration (IC50) in assay [1] (setting [21]) of 31100 nM.
With SPPETQKAEL, the dissociation constant Kd in [7] (setting [28]) is 28.4 nM.
VSFSMVGLF: in assay [11], the dissociation constant (Kd) stood at 119 nM.
ALSTGAGAY displayed a Kd in [12] (source organism: Mycobacterium tuberculosis F11) of 436 nM.
CPTQGEAVL: the Kd in [7] (setting [28]) was determined as 53.7 nM.
In turn, DSLSSQMTS registered a half-maximal inhibitory concentration (IC50) in assay [1] (setting [18]) of at least 240000 nM.
Consider SSSLTSLLK, for which the dissociation constant Kd in assay [13] was 9330 nM; in assay [14] it was at least 41500 nM; in assay [15], 4760 nM; in [16] (source organism: SARS-CoV1) it was 1110 nM.
On to CIDILRSLE, for which the half-inhibitory concentration (IC50) in [1] (setting [24]) turned out to be 51000 nM.
REAKATRPL showed a Kd in assay [17] of 80.8 nM.
YQTDSGCWY: the equilibrium dissociation constant (Kd) was found to be 6060 nM in [16] (setting [29]) and 1340 nM in [12] (setting [29]).
Consider ISEPMFHQG, for which the Kd in [4] (setting [30]) is 1690 nM; in assay [16] (setting [30]) it was 7130 nM.
Take VSIPITAAAW: the Kd in assay [8] (setting [31]) is 402 nM.
FLPKAAYAL had a dissociation constant (Kd) in assay [9] (source organism: Mammarenavirus juninense) of 2.8 nM.
Turning to LPIRYQTTA, the Kd in [2] (setting [28]) worked out at 15900 nM.
As to GLRAIKSVL, in [9] (source organism: Homo sapiens), the Kd amounted to 5660 nM.
As for NISLPLYTV, the equilibrium dissociation constant (Kd) in assay [9] (setting [32]) stood at 47.5 nM; in [4] (setting [32]) it was 8.5 nM.
On to GIYCTVPFI, for which the Kd came to 111 nM in assay [9] (setting [33]) and 388 nM in assay [4] (setting [33]).
With QLANETTQA, in assay [1] (setting [34]), the IC50 is 25900 nM.
Turning to WPLNEGVMAV, the equilibrium dissociation constant (Kd) in assay [2] (setting [28]) is 1670 nM.
With WQNLAWAGV, the Kd in assay [9] (setting [35]) stood at 53.6 nM; in [4] (setting [35]) it was 7000 nM.
WTLDANINA: in [1] (setting [34]), the IC50 was found to be 3850 nM.
Take FPQSNAPIMD: the values for the dissociation constant (Kd) in assay [2] (setting [31]) and in assay [8] (setting [31]) were 4160 nM and 113 nM, respectively.
TMGPHPAGV yielded a dissociation constant (Kd) in assay [9] (source organism: Burkholderia pseudomallei) of 0.7 nM.
